Columns and labels:
Assay in all cases: holdup assay
Design in all cases: key: below the threshold = too weak to quantify, mostly under pKd 3.1 to 4
[1] = biological target: SCRIB_3, Q14160
[2] = biological target: IL16_3, Q14005
[3] = biological target: GRIP2_7, Q9C0E4
[4] = biological target: T1, CARD11, Q9BXL7
T1 sequence (Q9BXL7 662-765, limits assumed, looked up): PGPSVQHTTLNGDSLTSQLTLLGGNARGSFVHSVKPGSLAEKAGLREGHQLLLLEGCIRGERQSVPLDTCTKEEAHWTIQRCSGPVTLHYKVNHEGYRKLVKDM

[5] = biological target: GRID2IP_2, A4D2P6
Chain of GRID2IP_2, A4D2P6 (A4D2P6 272-370): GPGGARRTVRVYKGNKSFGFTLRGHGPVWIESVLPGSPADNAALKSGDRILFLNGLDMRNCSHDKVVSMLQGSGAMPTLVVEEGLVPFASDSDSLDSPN

[6] = biological target: NHERF4_1, Q86UT5-2
Chain of NHERF4_1, Q86UT5-2 (Q86UT5 other isoform, or with tags, fused parts or gaps): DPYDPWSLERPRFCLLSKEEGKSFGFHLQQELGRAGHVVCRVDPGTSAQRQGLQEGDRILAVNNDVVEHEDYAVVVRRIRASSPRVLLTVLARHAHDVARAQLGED

[7] = biological target: Inadl_5, Q8NI35
Chain of Inadl_5, Q8NI35 (Q8NI35 673-780): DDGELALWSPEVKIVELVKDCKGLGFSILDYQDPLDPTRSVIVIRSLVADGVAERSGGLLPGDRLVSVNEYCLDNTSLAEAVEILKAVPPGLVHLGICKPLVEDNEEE

[8] = biological target: T2, SNTG1, Q9NSN8
T2 sequence (Q9NSN8 52-150, limits assumed, looked up): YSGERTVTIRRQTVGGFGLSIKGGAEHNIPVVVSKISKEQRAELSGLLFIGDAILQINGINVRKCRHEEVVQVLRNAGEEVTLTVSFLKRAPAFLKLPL

[9] = biological target: MAGI2_4, Q86UL8
Chain of MAGI2_4, Q86UL8 (Q86UL8 772-865): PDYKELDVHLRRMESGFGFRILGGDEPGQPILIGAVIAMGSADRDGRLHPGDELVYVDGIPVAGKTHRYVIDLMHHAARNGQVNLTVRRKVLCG

[10] = biological target: T3, LIN7B, Q9HAP6
T3 sequence (Q9HAP6 88-185, limits assumed, looked up): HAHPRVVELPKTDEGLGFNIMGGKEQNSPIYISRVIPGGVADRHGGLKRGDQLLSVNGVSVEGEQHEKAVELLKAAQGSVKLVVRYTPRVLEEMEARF

[11] = biological target: GRIP2_5, Q9C0E4
Chain of GRIP2_5, Q9C0E4 (Q9C0E4 544-642): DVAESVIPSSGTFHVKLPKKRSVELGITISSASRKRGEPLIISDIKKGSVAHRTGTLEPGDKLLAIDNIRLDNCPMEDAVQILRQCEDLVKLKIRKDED

[12] = biological target: SNX27, Q96L92
[13] = biological target: T4, NHERF3_1, Q5T2W1
T4 sequence (Q5T2W1 4-100, limits assumed, looked up): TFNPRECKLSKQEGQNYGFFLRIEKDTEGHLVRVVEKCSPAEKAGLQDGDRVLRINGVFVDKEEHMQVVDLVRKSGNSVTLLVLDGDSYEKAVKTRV

[14] = biological target: NHERF4_2, Q86UT5
Chain of NHERF4_2, Q86UT5 (Q86UT5 220-308): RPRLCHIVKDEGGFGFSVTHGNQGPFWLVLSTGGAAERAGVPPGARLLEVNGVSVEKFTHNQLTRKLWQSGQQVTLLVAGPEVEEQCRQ

[15] = biological target: PICK1, Q9NRD5
Chain of PICK1, Q9NRD5 (Q9NRD5 17-115): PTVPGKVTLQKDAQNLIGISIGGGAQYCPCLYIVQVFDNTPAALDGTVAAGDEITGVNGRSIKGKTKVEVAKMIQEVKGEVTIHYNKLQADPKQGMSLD

[16] = biological target: Inadl_10, Q8NI35
Chain of Inadl_10, Q8NI35 (Q8NI35 1673-1763): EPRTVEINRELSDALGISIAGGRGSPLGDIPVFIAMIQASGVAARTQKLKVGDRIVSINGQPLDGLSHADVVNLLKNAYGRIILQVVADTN

[17] = biological target: SCRIB_2, Q14160
Chain of SCRIB_2, Q14160 (Q14160 857-960): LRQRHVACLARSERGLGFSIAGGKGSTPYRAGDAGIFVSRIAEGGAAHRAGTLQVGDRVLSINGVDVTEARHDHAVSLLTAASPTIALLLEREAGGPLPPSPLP

[18] = biological target: GOPC, Q9HD26
[19] = biological target: LAP2, Q96RT1
Chain of LAP2, Q96RT1 (Q96RT1 other isoform, or with tags, fused parts or gaps): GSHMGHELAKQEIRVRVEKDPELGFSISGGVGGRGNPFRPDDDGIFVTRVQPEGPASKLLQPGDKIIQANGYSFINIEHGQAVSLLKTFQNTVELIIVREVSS

[20] = biological target: TJP2_1, Q9UDY2
Chain of TJP2_1, Q9UDY2 (Q9UDY2 24-128): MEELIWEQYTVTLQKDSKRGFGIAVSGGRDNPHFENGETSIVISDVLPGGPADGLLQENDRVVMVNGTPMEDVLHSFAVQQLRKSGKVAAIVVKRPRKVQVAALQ

[21] = biological target: DLG4_3, P78352
Chain of DLG4_3, P78352 (P78352 306-403): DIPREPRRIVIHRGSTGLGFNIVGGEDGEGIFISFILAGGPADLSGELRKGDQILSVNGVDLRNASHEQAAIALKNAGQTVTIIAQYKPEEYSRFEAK

[22] = biological target: LDB3, O75112
Chain of LDB3, O75112 (O75112 1-94): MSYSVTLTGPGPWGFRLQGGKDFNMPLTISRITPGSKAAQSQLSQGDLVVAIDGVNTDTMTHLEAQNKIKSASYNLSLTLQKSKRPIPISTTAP

[23] = biological target: T5, LNX2_2, Q8N448
T5 sequence (Q8N448 334-432, limits assumed, looked up): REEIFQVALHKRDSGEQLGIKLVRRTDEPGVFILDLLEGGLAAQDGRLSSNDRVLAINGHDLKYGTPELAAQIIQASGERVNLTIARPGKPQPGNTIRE

[24] = biological target: DLG5_1, Q8TDM6
Chain of DLG5_1, Q8TDM6 (Q8TDM6 617-713): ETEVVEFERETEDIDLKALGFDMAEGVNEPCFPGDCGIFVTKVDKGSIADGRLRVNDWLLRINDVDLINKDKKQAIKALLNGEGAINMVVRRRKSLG

[25] = biological target: T6, PCLO, Q9Y6V0
T6 sequence (Q9Y6V0 4491-4600, limits assumed, looked up): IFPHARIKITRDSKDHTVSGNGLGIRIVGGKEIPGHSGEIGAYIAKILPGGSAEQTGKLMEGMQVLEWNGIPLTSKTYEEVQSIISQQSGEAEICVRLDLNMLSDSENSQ

[26] = biological target: T7, NHERF3_3, Q5T2W1
T7 sequence (Q5T2W1 238-333, limits assumed, looked up): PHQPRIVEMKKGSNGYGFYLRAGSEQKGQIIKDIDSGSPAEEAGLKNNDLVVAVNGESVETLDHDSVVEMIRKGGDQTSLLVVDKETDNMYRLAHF

[27] = biological target: T8, LRRC7, Q96NW7
T8 sequence (Q96NW7 1440-1537, limits assumed, looked up): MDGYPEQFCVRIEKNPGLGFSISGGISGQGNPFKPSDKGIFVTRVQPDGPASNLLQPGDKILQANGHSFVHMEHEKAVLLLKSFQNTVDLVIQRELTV

[28] = biological target: T9, HTRA3, P83110
T9 sequence (P83110 354-453, limits assumed, looked up): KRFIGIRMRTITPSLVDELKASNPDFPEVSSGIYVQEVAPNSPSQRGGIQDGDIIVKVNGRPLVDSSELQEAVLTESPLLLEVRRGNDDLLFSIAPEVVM

[29] = plain residues with an end cap or a label only (N-terminal biotin on a linker: ado-ado)
[30] = plain residues with an end cap or a label only (N-terminal biotin on a linker: (peg)3)
[31] = plain residues with an end cap or a label only (N-terminal biotin on a linker: ahx)

Chain of GRIP2_7, Q9C0E4 (Q9C0E4 934-1023): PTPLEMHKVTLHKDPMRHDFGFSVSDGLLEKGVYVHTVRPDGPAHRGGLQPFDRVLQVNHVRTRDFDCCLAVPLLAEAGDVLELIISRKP
Chain of IL16_3, Q14005 (Q14005 1107-1207): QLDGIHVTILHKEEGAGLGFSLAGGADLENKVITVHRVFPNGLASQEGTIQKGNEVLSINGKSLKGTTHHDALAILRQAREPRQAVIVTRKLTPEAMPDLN
Chain of SCRIB_3, Q14160 (Q14160 999-1103): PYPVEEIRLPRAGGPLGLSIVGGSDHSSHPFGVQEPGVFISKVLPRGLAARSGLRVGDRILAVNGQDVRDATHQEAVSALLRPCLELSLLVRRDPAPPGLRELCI

NTANRRTTPV [CACNG2, Q9Y698]
pKd [1, 29]: 3.92
pKd [2, 29]: below the threshold
pKd [3, 29]: below the threshold
pKd [4, 29]: below the threshold
pKd [5, 29]: 3.89
pKd [6, 29]: below the threshold
pKd [7, 29]: below the threshold
pKd [8, 29]: below the threshold
pKd [9, 29]: below the threshold
pKd [10, 29]: below the threshold
pKd [11, 29]: below the threshold
pKd [12, 29]: 4.99
pKd [13, 29]: below the threshold
pKd [14, 29]: below the threshold
pKd [15, 29]: below the threshold
pKd [16, 29]: below the threshold
pKd [17, 29]: below the threshold
pKd [18, 29]: below the threshold
pKd [19, 29]: below the threshold
pKd [20, 29]: 3.9
pKd [21, 29]: 4.69
pKd [22, 29]: below the threshold
pKd [23, 29]: below the threshold
pKd [24, 29]: below the threshold
pKd [25, 29]: below the threshold
pKd [26, 29]: below the threshold
pKd [27, 29]: below the threshold
pKd [28, 29]: below the threshold

RRRRSQSRESQC [HBV-HBc, P03193]
pKd [1, 30]: 4.03
pKd [2, 30]: below the threshold
pKd [3, 30]: below the threshold
pKd [4, 30]: below the threshold
pKd [5, 30]: below the threshold
pKd [6, 30]: 3.86
pKd [7, 30]: below the threshold
pKd [8, 30]: below the threshold
pKd [9, 30]: below the threshold
pKd [10, 30]: 3.7
pKd [11, 30]: below the threshold
pKd [12, 30]: 4.76
pKd [13, 30]: 4.44
pKd [14, 30]: below the threshold
pKd [15, 30]: 4.05
pKd [16, 30]: below the threshold
pKd [17, 30]: below the threshold
pKd [18, 30]: below the threshold
pKd [19, 30]: below the threshold
pKd [20, 30]: below the threshold
pKd [21, 30]: 4.58
pKd [22, 30]: below the threshold
pKd [23, 30]: below the threshold
pKd [24, 30]: below the threshold
pKd [25, 30]: below the threshold
pKd [26, 30]: below the threshold
pKd [27, 30]: below the threshold
pKd [28, 30]: 3.58

AEASVACSLC [PTGIR, P43119]
pKd [1, 29]: below the threshold
pKd [2, 29]: below the threshold
pKd [3, 29]: below the threshold
pKd [4, 29]: below the threshold
pKd [5, 29]: 3.77
pKd [6, 29]: 4.54
pKd [7, 29]: below the threshold
pKd [8, 29]: below the threshold
pKd [9, 29]: 3.72
pKd [10, 29]: below the threshold
pKd [11, 29]: below the threshold
pKd [12, 29]: 4.4
pKd [13, 29]: 4.51
pKd [14, 29]: below the threshold
pKd [15, 29]: below the threshold
pKd [16, 29]: below the threshold
pKd [17, 29]: below the threshold
pKd [18, 29]: below the threshold
pKd [19, 29]: below the threshold
pKd [20, 29]: below the threshold
pKd [21, 29]: below the threshold
pKd [22, 29]: below the threshold
pKd [23, 29]: 3.78
pKd [24, 29]: below the threshold
pKd [25, 29]: below the threshold
pKd [26, 29]: below the threshold
pKd [27, 29]: below the threshold
pKd [28, 29]: 4.15

TQKFRASTAL [FRMPD1, Q5SYB0]
pKd [1, 31]: 4.59
pKd [2, 31]: below the threshold
pKd [3, 31]: below the threshold
pKd [4, 31]: below the threshold
pKd [5, 31]: 4.18
pKd [6, 31]: 4.47
pKd [7, 31]: below the threshold
pKd [8, 31]: below the threshold
pKd [9, 31]: 3.48
pKd [10, 31]: below the threshold
pKd [11, 31]: below the threshold
pKd [12, 31]: 4.03
pKd [13, 31]: 5.47
pKd [14, 31]: below the threshold
pKd [15, 31]: below the threshold
pKd [16, 31]: 3.61
pKd [17, 31]: below the threshold
pKd [18, 31]: 4.12
pKd [19, 31]: below the threshold
pKd [20, 31]: below the threshold
pKd [21, 31]: 3.78
pKd [22, 31]: below the threshold
pKd [23, 31]: below the threshold
pKd [24, 31]: below the threshold
pKd [25, 31]: below the threshold
pKd [26, 31]: below the threshold
pKd [27, 31]: below the threshold
pKd [28, 31]: below the threshold

LKDDELKTKL [SLCO1A2, P46721]
pKd [1, 29]: 3.73
pKd [2, 29]: below the threshold
pKd [3, 29]: below the threshold
pKd [4, 29]: below the threshold
pKd [5, 29]: 4.55
pKd [6, 29]: 3.91
pKd [7, 29]: below the threshold
pKd [8, 29]: below the threshold
pKd [9, 29]: below the threshold
pKd [10, 29]: below the threshold
pKd [11, 29]: below the threshold
pKd [12, 29]: 3.8
pKd [13, 29]: 4.87
pKd [14, 29]: below the threshold
pKd [15, 29]: below the threshold
pKd [16, 29]: below the threshold
pKd [17, 29]: below the threshold
pKd [18, 29]: 3.94
pKd [19, 29]: below the threshold
pKd [20, 29]: below the threshold
pKd [21, 29]: below the threshold
pKd [22, 29]: below the threshold
pKd [23, 29]: below the threshold
pKd [24, 29]: below the threshold
pKd [25, 29]: below the threshold
pKd [26, 29]: 4.17
pKd [27, 29]: below the threshold
pKd [28, 29]: below the threshold

— paper PMC9482650, “Quantitative fragmentomics allow affinity mapping of interactomes” (Nature Communications, 2022)
